Measurements taken from patent publication US20050079494A1 (MONSANTO TECHNOLOGY, published 2005).

What was measured:
[1] = target: the molecule itself; assay: self-assembly in E. coli; 5-25% sucrose density gradient, SDS-PAGE with Coomassie staining
Protocol: (§1) To characterize the expression of the wild-type and epitope-tagged (mature) glycinin A₁ₐB1b protein in E. coli, plasmids pMON65950, pMON65951, and pMON65952 are transformed into E. coli Origami™ (DE3) competent cells according to manufacturer's instructions (Novagen). A single colony is used to inoculate 2 ml LB medium. The culture is grown at 37° C. until a cell density corresponding to A₆₀₀=0.6 is achieved. An amount corresponding to a final concentration of 1 mM isopropyl-1-thio-β-D-galactopyranoside (IPTG) is added to induce protein expression and the culture is incubated at temperatures ranging from 20° to 37° C. at 225 rpm for time periods up to 20 hours. Cells are harvested by centrifugation at 5,000 rpm for 15 min at 4° C. The cell pellet is re-suspended in protein extraction buffer consisting of 20 mM Tris-HCl, pH 7.4, 0.4 M NaCl, 0.1% TritonX-100, 40 μl/ml Protease Inhibitor Cocktail, (stock: 1 tablet/2 ml, Boehringer Mannheim, Indianapolis, Ind.). The cells are then disrupted by sonication (Branson Sonifier 450, Branson Precision Processing, Danbury, Conn.) while maintaining at cold temperature with ice. Soluble proteins are separated from the insoluble fraction by centrifugation at 13,000 rpm for 5 minutes. […]

[2] = target: the molecule itself; assay: self-assembly in E. coli; sucrose density gradient, anti-FLAG western blot of fractions
Protocol: To determine if the recombinant forms of glycinin A₁ₐB1b expressed in E. coli from […], pMON65951, and pMON65952 could self-assemble to form trimers, aliquots of the soluble protein fraction from E. coli lysates are layered onto 12 ml of a 5-25% sucrose density gradient, and centrifuged at 36,000 rpm for 17.5 hours at 20° C. (Sorvall TH-641 rotor; Sorvall Ultra Pro 80 ultracentrifuge). Following centrifugation, the gradient is divided into fractions using a Labconco Autodensi-Flow instrument (Labconco, Kansas City, Mo.), and each fraction is analyzed by SDS-polyacrylamide gel electrophoresis followed either by Coomassie staining or by western blot analysis using Anti-FLAG M2 antibody (Stratagene Corporation, La Jolla, Calif.), to determine which fractions contained glycinin A₁ₐB1b. 7S and 11S soy protein fractions, as well as ovalbumin (45 kD) and aldolase (158 kD), are run as size markers on separate gradients.
This example sets forth confirmation of the protein structure from the expression of modified glycinin A₁ₐB1b clones. The assembly properties of the following modified forms of the protein (indicated by mutant ID number), each containing a different isoleucine substitution, are determined as described in Example 3. Western blot analysis of sucrose gradient fractions is carried out as in Example 3 using anti-FLAG antibody for each of mutants G1-4 through G13-2.

[3] = target: the molecule itself; assay: self-assembly in E. coli; 5-25% sucrose density gradient, SDS-PAGE with Coomassie or anti-FLAG M2 western blot
Protocol: as §1

B1: mature form (plus additional methionine encoded by start codon) of glycinin A1aB1b encoded by pMON65950 (other)
chain: MFSSREQPQQNECQIQKLNALKPDNRIESEGGLIETWNPNNKPFQCAGVALSRCTLNRNALRRPSYTNGPQEIYIQQGKGIFGMIYPGCPSTFEEPQQPQQRGQSSRPQDRHQKIYNFREGDLIAVPTGVAWWMYNNEDTPVVAVSIIDTNSLENQLDQMPRRFYLAGNQEQEFLKYQQEQGGHQSQKGKHQQEEENEGGSILSGFTLEFLEHAFSVDKQIAKNLQGENEGEDKGAIVTVKGGLSVIKPPTDEQQQRPQEEEEEEEDEKPQCKGKDKHCQRPRGSQSKSRRNGIDETICTMRLRHNIGQTSSPDIYNPQAGSVTTATSLDFPALSWLRLSAEFGSLRKNAMFVPHYNLNANSIIYALNGRALIQVVNCNGERVFDGELQEGRVLIVPQNFVVAARSQSDNFEYVSFKTNDTPMIGTLAGANSLLNALPEEVIQHTFNLKSQQARQIKNNNPFKFLVPPQESQKRAVA
notes: Soybean seed storage protein subunit made in E. coli Origami (DE3), no FLAG tag; also called wild-type (mature) glycinin A1aB1b; native form
binding result [1]: binds

B2: glycinin A1aB1b mutant g3-5 (other)
chain: FSSREQPQQNECQIQKLNAIKPDNRIESEGGLIETWNPNNKPFQCAGVALSRCTLNRNALRRPSYTNGPQEIYIQQGKGIFGMIYPGCPSTFEEPQQPQQRGQSSRPQDRHQKIYNFREGDIIAVPTGVAWWMYNNEDTPVVAVSIIDTNSIENQLDQMPRRFYLAGNQEQEFLKYQQEQGGHQSQKGKHQQEEENEGGSILSGFTLEFLEHAFSVDKQIAKNLQGENEGEDKGAIVTVKGGLSVIKPPTDEQQQRPQEEEEEEEDEKPQCKGKDKHCQRPRGSQSKSRRNGIDETICTMRLRHNIGQTSSPDIYNPQAGSVTTATSLDFPAISWLRLSAEFGSIRKNAMFVPHYNLNANSIIYAINGRALIQVVNCNGERVFDGELQEGRVLIVPQNFVVAARSQSDNFEYVSFKTNDTPMIGTLAGANSLLNALPEEVIQHTFNLKSQQARQIKNNNPFKFLVPPQESQKRAVADYKDDDDK
binding result [2]: no binding

B3: glycinin A1aB1b mutant g6-4 (other)
chain: FSSREQPQQNECQIQKLNAIKPDNRIESEGGLIETWNPNNKPFQCAGVALSRCTLNRNALRRPSYTNGPQEIYIQQGKGIFGMIYPGCPSTFEEPQQPQQRGQSSRPQDRHQKIYNFREGDLIAVPTGVAWWMYNNEDTPVVAVSIIDTNSIENQLDQMPRRFYLAGNQEQEFLKYQQEQGGHQSQKGKHQQEEENEGGSILSGFTLEFLEHAFSVDKQIAKNLQGENEGEDKGAIVTVKGGLSVIKPPTDEQQQRPQEEEEEEEDEKPQCKGKDKHCQRPRGSQSKSRRNGIDETICTMRLRHNIGQTSSPDIYNPQAGSVTTATSLDFPAISWLRLSAEFGSIRKNAMFVPHYNLNANSIIYAINGRALIQVVNCNGERVFDGELQEGRVLIVPQNFVVAARSQSDNFEYVSFKTNDTPMIGTLAGANSLLNALPEEVIQHTFNLKSQQARQIKNNNPFKFLVPPQESQKRAVADYKDDDDK
binding result [2]: no binding

B4: glycinin A1aB1b mutant g10-10 (other)
chain: FSSREQPQQNECQIQKLNALKPDNRIESEGGLIETWNPNNKPFQCAGVALSRCTLNRNAIRRPSYTNGPQEIYIQQGKGIFGMIYPGCPSTFEEPQQPQQRGQSSRPQDRHQKIYNFREGDLIAVPTGVAWWMYNNEDTPVVAVSIIDTNSLENQLDQMPRRFYLAGNQEQEFLKYQQEQGGHQSQKGKHQQEEENEGGSILSGFTLEFLEHAFSVDKQIAKNLQGENEGEDKGAIVTVKGGLSVIKPPTDEQQQRPQEEEEEEEDEKPQCKGKDKHCQRPRGSQSKSRRNGIDETICTMRIRHNIGQTSSPDIYNPQAGSVTTATSLDFPALSWIRLSAEFGSLRKNAMFVPHYNLNANSIIYALNGRALIQVVNCNGERVFDGELQEGRVIIVPQNFVVAARSQSDNFEYVSFKTNDTPMIGTLAGANSLLNALPEEVIQHTFNLKSQQARQIKNNNPFKFLVPPQESQKRAVADYKDDDDK
binding result [2]: no binding

B5: glycinin A1aB1b mutant g6-7 (other)
chain: FSSREQPQQNECQIQKLNAIKPDNRIESEGGLIETWNPNNKPFQCAGVALSRCTLNRNALRRPSYTNGPQEIYIQQGKGIFGMIYPGCPSTFEEPQQPQQRGQSSRPQDRHQKIYNFREGDIIAVPTGVAWWMYNNEDTPVVAVSIIDTNSLENQLDQMPRRFYLAGNQEQEFLKYQQEQGGHQSQKGKHQQEEENEGGSILSGFTLEFLEHAFSVDKQIAKNLQGENEGEDKGAIVTVKGGLSVIKPPTDEQQQRPQEEEEEEEDEKPQCKGKDKHCQRPRGSQSKSRRNGIDETICTMRLRHNIGQTSSPDIYNPQAGSVTTATSLDFPAISWLRLSAEFGSIRKNAMFVPHYNLNANSIIYAINGRALIQVVNCNGERVFDGELQEGRVLIVPQNFVVAARSQSDNFEYVSFKTNDTPMIGTLAGANSLLNALPEEVIQHTFNLKSQQARQIKNNNPFKFLVPPQESQKRAVADYKDDDDK
binding result [2]: no binding

B6: amino-terminal epitope (FLAG)-tagged form of glycinin A1aB1b encoded by pMON65951 (other)
chain: MDYKDDDDKFSSREQPQQNECQIQKLNALKPDNRIESEGGLIETWNPNNKPFQCAGVALSRCTLNRNALRRPSYTNGPQEIYIQQGKGIFGMIYPGCPSTFEEPQQPQQRGQSSRPQDRHQKIYNFREGDLIAVPTGVAWWMYNNEDTPVVAVSIIDTNSLENQLDQMPRRFYLAGNQEQEFLKYQQEQGGHQSQKGKHQQEEENEGGSILSGFTLEFLEHAFSVDKQIAKNLQGENEGEDKGAIVTVKGGLSVIKPPTDEQQQRPQEEEEEEEDEKPQCKGKDKHCQRPRGSQSKSRRNGIDETICTMRLRHNIGQTSSPDIYNPQAGSVTTATSLDFPALSWLRLSAEFGSLRKNAMFVPHYNLNANSIIYALNGRALIQVVNCNGERVFDGELQEGRVLIVPQNFVVAARSQSDNFEYVSFKTNDTPMIGTLAGANSLLNALPEEVIQHTFNLKSQQARQIKNNNPFKFLVPPQESQKRAVA
notes: Mature glycinin A1aB1b with start Met and N-terminal FLAG, made in E. coli; self-assembles to trimers; also called pMON65951 protein
binding result [3]: binds

B7: carboxy-terminal epitope (FLAG)-tagged form of glycinin A1aB1b encoded by pMON65952 (other)
chain: MFSSREQPQQNECQIQKLNALKPDNRIESEGGLIETWNPNNKPFQCAGVALSRCTLNRNALRRPSYTNGPQEIYIQQGKGIFGMIYPGCPSTFEEPQQPQQRGQSSRPQDRHQKIYNFREGDLIAVPTGVAWWMYNNEDTPVVAVSIIDTNSLENQLDQMPRRFYLAGNQEQEFLKYQQEQGGHQSQKGKHQQEEENEGGSILSGFTLEFLEHAFSVDKQIAKNLQGENEGEDKGAIVTVKGGLSVIKPPTDEQQQRPQEEEEEEEDEKPQCKGKDKHCQRPRGSQSKSRRNGIDETICTMRLRHNIGQTSSPDIYNPQAGSVTTATSLDFPALSWLRLSAEFGSLRKNAMFVPHYNLNANSIIYALNGRALIQVVNCNGERVFDGELQEGRVLIVPQNFVVAARSQSDNFEYVSFKTNDTPMIGTLAGANSLLNALPEEVIQHTFNLKSQQARQIKNNNPFKFLVPPQESQKRAVADYKDDDDK
notes: Mature glycinin A1aB1b with C-terminal FLAG, made in E. coli; self-assembles to trimers; Template of the isoleucine mutants; also called pMON65952 protein
binding result [3]: binds
